# Measurements taken from PMC9896449 (Nature Communications, 2023).
# Tests used:
# [1] = molecular target: ShAb02 (shark VNAR - human IgG1 Fc chimera) (nurse shark (Ginglymostoma cirratum)); test: BLI; settings: both partners purified
# [2] = molecular target: ShAb01 (shark VNAR - human IgG1 Fc chimera) (nurse shark (Ginglymostoma cirratum)); test: BLI; settings: both partners purified
binder,measurement,setting,value
SARS-CoV-1 RBD (domain or fragment) not shown,binding result,[1],no binding
same,binding result,[2],binds
